# T1: IL-2Rβ-Fc (Acro Biosystems, catalog #ILB-H5253) (UniProt P14784 27-239, limits assumed)
# T1 construct: Bought reagent; Captured on an anti-Fc chip as SPR ligand; also called CD122; not shown: Fc part of the bought fusion
# T1 sequence (looked up): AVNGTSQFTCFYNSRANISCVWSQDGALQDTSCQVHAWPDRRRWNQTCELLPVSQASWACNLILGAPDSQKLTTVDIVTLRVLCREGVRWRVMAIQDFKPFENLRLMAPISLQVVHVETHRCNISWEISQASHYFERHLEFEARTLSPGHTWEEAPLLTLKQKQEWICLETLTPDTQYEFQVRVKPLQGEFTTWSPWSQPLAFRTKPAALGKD
# T2: IL-2Rα-Fc (Acro Biosystems, catalog #ILA-H5251) (UniProt P01589 22-217, limits assumed)
# T2 construct: Bought reagent; Captured on an anti-Fc chip as SPR ligand; also called CD25; not shown: Fc part of the bought fusion
# T2 sequence (looked up): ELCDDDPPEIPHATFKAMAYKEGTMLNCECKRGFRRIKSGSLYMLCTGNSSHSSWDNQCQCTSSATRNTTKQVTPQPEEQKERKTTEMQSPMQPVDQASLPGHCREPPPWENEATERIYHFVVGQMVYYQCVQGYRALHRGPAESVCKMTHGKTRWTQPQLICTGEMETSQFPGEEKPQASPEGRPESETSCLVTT
# Tests used:
# [1] = biological target: T1, IL-2Rβ-Fc (Acro Biosystems, catalog …); experiment: SPR (Biacore T200), kinetic; receptor-Fc captured on anti-Fc CM5 chip, IL-2 variant as analyte
# Procedure: (§1) Anti-Fc polyclonal antibodies were immobilized onto a CM5 chip (GE Life Sciences) using amine coupling chemistry (from Amine Coupling Kit, GE Life Sciences). The immobilization steps were carried out at a flow rate of 25 μL/minute in 1×HBS-EP+ buffer (GE Life Sciences; 10× Stock diluted before use). The sensor surfaces were activated for 7 minutes with a mixture of NHS (0.05 M) and EDC (0.2 M). The anti-Fc antibodies were injected over all four flow cells at a concentration of 25 μg/mL in 10 mM sodium acetate, pH 4.5, for seven minutes. Ethanolamine (1 M, pH 8.5) was injected for seven minutes to block any remaining activated groups.
# (§2) Kinetic binding experiments were performed at 25° C. using 1×HBS-EP+ with 0.05% BSA buffer. IL-2Rα-Fc or IL-2Rβ-Fc (Acro Biosystems, catalog #ILA-H5251, ILB-H5253) was injected over the anti-Fc surface at concentrations of 3-10 μg/mL for 12 seconds at a flow rate of 10 μL/minute on flow cells 2, 3 and 4, followed by a buffer wash for 30 seconds at the same flow rate. Kinetic characterization of conjugated or unconjugated aldesleukin or variants was carried out in a range of concentrations from 1 nM-10 μM and one injection of no antigen. After capturing ligand (IL-2Rα-Fc or IL-2Rβ-Fc) on the anti-Fc surface, the analyte (IL-2 variant) was bound for 60 seconds, followed by a 180 second dissociation phase at a flow rate of 50 μL/min. Between each ligand capture and analyte binding cycle, regeneration was carried out using two injections of 10 mM Glycine pH 1.5 for 30 seconds at 30 μL/minute, followed by a 30 second buffer wash step.
# [2] = biological target: T2, IL-2Rα-Fc (Acro Biosystems, catalog …); experiment: as above
# Procedure: as §1, §2
# [3] = biological target: T2, IL-2Rα-Fc (Acro Biosystems, catalog …); experiment: SPR, receptor-Fc captured on anti-Fc chip
# [4] = biological target: T1, IL-2Rβ-Fc (Acro Biosystems, catalog …); experiment: SPR, kinetic binding to IL-2 receptor
# [5] = biological target: T2, IL-2Rα-Fc (Acro Biosystems, catalog …); experiment: SPR, kinetic binding to IL-2 receptor
binder,measurement,setting,value
"Ald-6HIS_Q73pAMF (SP9965), unconjugated (ligand, X74 = pAMF (Q73 in SEQ ID NO: 2/3 numbering), also called Aldesleukin-6His Q73TAG p-azidomethyl-L-phenylalanine) MPTSSSTKKTQLQLEHLLLDLQMILNGINNYKNPKLTRMLTFKFYMPKKATELKHLQCLEEELKPLEEVLNLAFSKNFHLRPRDLISNINVIVLELKGSETTFMCEYADETATIVEFLNRWITFSQSIISTLTGGSHHHHHH",Kd,[1],80 nM
same,Kd,[2],7 nM
"SP10728 (Aldesleukin-6His_S4/Y30/K34/R80 pAMF F41K conjugated to SC579) (ligand, X5, X31, X35, X81 = pAMF (S4, Y30, K34, R80), each conjugated to SC579 (releasable 20 kDa mPEG Fmoc-DBCO linker), also called SP10728 PEG conjugate) MPTSFSTKKTQLQLEHLLLDLQMILNGINNFKNPFLTRMLTKKFYMPKKATELKHLQCLEEELKPLEEVLNLAQSKNFHLFPRDLISNINVIVLELKGSETTFMCEYADETATIVEFLNRWITFSQSIISTLTGGSHHHHHH",binding result,[3],no binding
"Aldesleukin-6His_S4/Y30/K34 pAMF F41K (SP10684) conjugated to SC547 stump (ligand, X5, X31, X35 = pAMF (S4, Y30, K34), each conjugated to SC547 (conjugation stump), also called SP10724 stump conjugate) MPTSFSTKKTQLQLEHLLLDLQMILNGINNFKNPFLTRMLTKKFYMPKKATELKHLQCLEEELKPLEEVLNLAQSKNFHLRPRDLISNINVIVLELKGSETTFMCEYADETATIVEFLNRWITFSQSIISTLTGGSHHHHHH",Kd,[4],3000 nM
"Ald-6HIS_V114pAMF (SP9970), unconjugated (ligand, X115 = pAMF (V114 in SEQ ID NO: 2/3 numbering), also called Aldesleukin-6His V114TAG p-azidomethyl-L-phenylalanine) MPTSSSTKKTQLQLEHLLLDLQMILNGINNYKNPKLTRMLTFKFYMPKKATELKHLQCLEEELKPLEEVLNLAQSKNFHLRPRDLISNINVIVLELKGSETTFMCEYADETATIFEFLNRWITFSQSIISTLTGGSHHHHHH",Kd,[1],300 nM
same,Kd,[2],50 nM
"Ald-6HIS_Y30pAMF (SP9957) conjugated to DBCO 2 x 10 kDa PEG (PEG2) (ligand, X31 = pAMF (Y30) conjugated to branched 20 kDa PEG (DBCO 2 x 10 kDa PEG, PEG2), also called SP9957 PEG2 conjugated) MPTSSSTKKTQLQLEHLLLDLQMILNGINNFKNPKLTRMLTFKFYMPKKATELKHLQCLEEELKPLEEVLNLAQSKNFHLRPRDLISNINVIVLELKGSETTFMCEYADETATIVEFLNRWITFSQSIISTLTGGSHHHHHH",Kd,[2],300 nM
"SP10724 (Aldesleukin-6His_S4/Y30/K34 pAMF F41K conjugated to SC579) (ligand, X5, X31, X35 = pAMF (S4, Y30, K34), each conjugated to SC579 (releasable 20 kDa mPEG Fmoc-DBCO linker), also called SP10724 PEG conjugate) MPTSFSTKKTQLQLEHLLLDLQMILNGINNFKNPFLTRMLTKKFYMPKKATELKHLQCLEEELKPLEEVLNLAQSKNFHLRPRDLISNINVIVLELKGSETTFMCEYADETATIVEFLNRWITFSQSIISTLTGGSHHHHHH",binding result,[3],no binding
"Ald-6HIS_R80pAMF (SP9968), unconjugated (ligand, X81 = pAMF (R80 in SEQ ID NO: 2/3 numbering), also called Aldesleukin-6His R80TAG p-azidomethyl-L-phenylalanine) MPTSSSTKKTQLQLEHLLLDLQMILNGINNYKNPKLTRMLTFKFYMPKKATELKHLQCLEEELKPLEEVLNLAQSKNFHLFPRDLISNINVIVLELKGSETTFMCEYADETATIVEFLNRWITFSQSIISTLTGGSHHHHHH",Kd,[1],400 nM
same,Kd,[2],20 nM
"Ald-6HIS_S4pAMF (SP9954) conjugated to DBCO 2 x 10 kDa PEG (PEG2) (ligand, X5 = pAMF (S4) conjugated to branched 20 kDa PEG (DBCO 2 x 10 kDa PEG, PEG2), also called SP9954 PEG2 conjugated) MPTSFSTKKTQLQLEHLLLDLQMILNGINNYKNPKLTRMLTFKFYMPKKATELKHLQCLEEELKPLEEVLNLAQSKNFHLRPRDLISNINVIVLELKGSETTFMCEYADETATIVEFLNRWITFSQSIISTLTGGSHHHHHH",Kd,[2],100 nM
"SP10725 (Aldesleukin-6His_S4/Y30/K34/R80 pAMF conjugated to SC579) (ligand, X5, X31, X35, X81 = pAMF (S4, Y30, K34, R80), each conjugated to SC579 (releasable 20 kDa mPEG Fmoc-DBCO linker), also called SP10725 PEG conjugate) MPTSFSTKKTQLQLEHLLLDLQMILNGINNFKNPFLTRMLTFKFYMPKKATELKHLQCLEEELKPLEEVLNLAQSKNFHLFPRDLISNINVIVLELKGSETTFMCEYADETATIVEFLNRWITFSQSIISTLTGGSHHHHHH",binding result,[3],no binding
"Ald-6HIS_V114pAMF (SP9970) conjugated to DBCO 2 x 10 kDa PEG (PEG2) (ligand, X115 = pAMF (V114) conjugated to branched 20 kDa PEG (DBCO 2 x 10 kDa PEG, PEG2), also called SP9970 PEG2 conjugated) MPTSSSTKKTQLQLEHLLLDLQMILNGINNYKNPKLTRMLTFKFYMPKKATELKHLQCLEEELKPLEEVLNLAQSKNFHLRPRDLISNINVIVLELKGSETTFMCEYADETATIFEFLNRWITFSQSIISTLTGGSHHHHHH",Kd,[2],500 nM
"Aldesleukin-6His_S4/K34/F77 pAMF (SP10682) conjugated to SC547 stump (ligand, X5, X35, X78 = pAMF (S4, K34, F77), each conjugated to SC547 (conjugation stump), also called SP10722 stump conjugate) MPTSFSTKKTQLQLEHLLLDLQMILNGINNYKNPFLTRMLTFKFYMPKKATELKHLQCLEEELKPLEEVLNLAQSKNFHLRPRDLISNINVIVLELKGSETTFMCEYADETATIVEFLNRWITFSQSIISTLTGGSHHHHHH",Kd,[4],3000 nM
same,Kd,[5],40 nM

# Source: patent US20260256927A1 (Merck Sharp & Dohme, published 2026)
